According to the supplement of paper PMC10567573:

B1: TOR1AIP2 (parent)
chain: SPGHSSAGQEGEDTLRRRLLAPEA

Variants of: B1
Assay: protein stability index of a GFP-peptide fusion (GPS, HEK-293T) (PSI 1-6); higher = more stable
Conditions: c terminus: a fixed tail appended
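Further: lentivirally expressed fusions sorted by FACS into six bins by GFP to DsRed ratio, PSI derived from sequencing read proportions per bin multiplied by bin number.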

| Variant | protein stability index |
| --- | --- |
| SPGHDSAGQEGEDTLRRRLLAPEA [S5D] | 4.75 |
| SPGHMSAGQEGEDTLRRRLLAPEA [S5M] | 4.49 |
| SPGHRSAGQEGEDTLRRRLLAPEA [S5R] | 4 |
| SPGHVSAGQEGEDTLRRRLLAPEA [S5V] | 4.3 |
| SPGHFSAGQEGEDTLRRRLLAPEA [S5F] | 4 |
| SPGHCSAGQEGEDTLRRRLLAPEA [S5C] | 3.37 |
| SPGHQSAGQEGEDTLRRRLLAPEA [S5Q] | 4.64 |
| SPGHESAGQEGEDTLRRRLLAPEA [S5E] | 4.64 |
| SPGHKSAGQEGEDTLRRRLLAPEA [S5K] | 3.86 |
| SPGHWSAGQEGEDTLRRRLLAPEA [S5W] | 4.63 |
| SPGHYSAGQEGEDTLRRRLLAPEA [S5Y] | 4.09 |
| SPGHNSAGQEGEDTLRRRLLAPEA [S5N] | 4.42 |
| SPGHGSAGQEGEDTLRRRLLAPEA [S5G] | 4.11 |
| SPGHISAGQEGEDTLRRRLLAPEA [S5I] | 3.78 |
| SPGHASAGQEGEDTLRRRLLAPEA [S5A] | 3.84 |
| SPGHLSAGQEGEDTLRRRLLAPEA [S5L] | 3.9 |
| SPGHHSAGQEGEDTLRRRLLAPEA [S5H] | 4.35 |
| SPGHTSAGQEGEDTLRRRLLAPEA [S5T] | 4.46 |
| SPGHPSAGQEGEDTLRRRLLAPEA [S5P] | 4.14 |
| SPGHSSAGQKGEDTLRRRLLAPEA [E10K] | 3.27 |
| SPGHSSAGQFGEDTLRRRLLAPEA [E10F] | 3.68 |
| SPGHSSAGQCGEDTLRRRLLAPEA [E10C] | 2.67 |
| SPGHSSAGQIGEDTLRRRLLAPEA [E10I] | 3.63 |
| SPGHSSAGQHGEDTLRRRLLAPEA [E10H] | 3.61 |

| Variant | protein stability index |
| --- | --- |
| SPGHSSAGQLGEDTLRRRLLAPEA [E10L] | 3.31 |
| SPGHSSAGQGGEDTLRRRLLAPEA [E10G] | 3.91 |
| SPGHSSAGQAGEDTLRRRLLAPEA [E10A] | 3.75 |
| SPGHSSAGQDGEDTLRRRLLAPEA [E10D] | 3.94 |
| SPGHSSAGQMGEDTLRRRLLAPEA [E10M] | 3.58 |
| SPGHSSCGQEGEDTLRRRLLAPEA [A7C] | 3.45 |
| SPGHSSQGQEGEDTLRRRLLAPEA [A7Q] | 4.24 |
| SPGHSSKGQEGEDTLRRRLLAPEA [A7K] | 3.66 |
| SPGHSSVGQEGEDTLRRRLLAPEA [A7V] | 4.25 |
| SPGHSSSGQEGEDTLRRRLLAPEA [A7S] | 4.01 |
| SPGHSSWGQEGEDTLRRRLLAPEA [A7W] | 3.89 |
| SPGHSSYGQEGEDTLRRRLLAPEA [A7Y] | 3.9 |
| SPGHSSHGQEGEDTLRRRLLAPEA [A7H] | 3.77 |
| SPGHSSRGQEGEDTLRRRLLAPEA [A7R] | 3.82 |
| SPGHSSTGQEGEDTLRRRLLAPEA [A7T] | 4.18 |
| SPGHSSLGQEGEDTLRRRLLAPEA [A7L] | 3.73 |
| SPGHSSIGQEGEDTLRRRLLAPEA [A7I] | 3.92 |
| SPGHSSFGQEGEDTLRRRLLAPEA [A7F] | 4.16 |
| SPGHSSNGQEGEDTLRRRLLAPEA [A7N] | 3.76 |
| SPGHSSMGQEGEDTLRRRLLAPEA [A7M] | 3.79 |
| SPGHSSEGQEGEDTLRRRLLAPEA [A7E] | 4.47 |
| SPGHSSDGQEGEDTLRRRLLAPEA [A7D] | 4.56 |
| SPGHSSPGQEGEDTLRRRLLAPEA [A7P] | 3.42 |
| SPGHSSGGQEGEDTLRRRLLAPEA [A7G] | 4.21 |

| Variant | protein stability index |
| --- | --- |
| SPGHSSAVQEGEDTLRRRLLAPEA [G8V] | 4.43 |
| SPGHSSAPQEGEDTLRRRLLAPEA [G8P] | 4.53 |
| SPGHSSAMQEGEDTLRRRLLAPEA [G8M] | 4.05 |
| SPGHSSAKQEGEDTLRRRLLAPEA [G8K] | 4.19 |
| SPGHSSANQEGEDTLRRRLLAPEA [G8N] | 4.05 |
| SPGHSSASQEGEDTLRRRLLAPEA [G8S] | 4.42 |
| SPGHSSALQEGEDTLRRRLLAPEA [G8L] | 4.21 |
| SPGHSSAHQEGEDTLRRRLLAPEA [G8H] | 4.69 |
| SPGHSSAYQEGEDTLRRRLLAPEA [G8Y] | 3.79 |
| SPGHSSACQEGEDTLRRRLLAPEA [G8C] | 4.46 |
| SPGHSSAWQEGEDTLRRRLLAPEA [G8W] | 4.19 |
| SPGHSSAEQEGEDTLRRRLLAPEA [G8E] | 4.5 |
| SPGHSSAIQEGEDTLRRRLLAPEA [G8I] | 4.53 |
| SPGHSSAFQEGEDTLRRRLLAPEA [G8F] | 3.34 |
| SPGHSSATQEGEDTLRRRLLAPEA [G8T] | 4.61 |
| SPGHSSAQQEGEDTLRRRLLAPEA [G8Q] | 4.33 |
| SPGHSSARQEGEDTLRRRLLAPEA [G8R] | 4 |
| SPGHSSAAQEGEDTLRRRLLAPEA [G8A] | 4.24 |
| SPGHSSADQEGEDTLRRRLLAPEA [G8D] | 4.51 |
| SPGPSSAGQEGEDTLRRRLLAPEA [H4P] | 4.49 |
| SPGLSSAGQEGEDTLRRRLLAPEA [H4L] | 3.85 |
| SPGWSSAGQEGEDTLRRRLLAPEA [H4W] | 3.98 |
| SPGMSSAGQEGEDTLRRRLLAPEA [H4M] | 3.38 |
| SPGDSSAGQEGEDTLRRRLLAPEA [H4D] | 4.89 |

| Variant | protein stability index |
| --- | --- |
| SPGVSSAGQEGEDTLRRRLLAPEA [H4V] | 3.81 |
| SPGSSSAGQEGEDTLRRRLLAPEA [H4S] | 4.39 |
| SPGISSAGQEGEDTLRRRLLAPEA [H4I] | 3.92 |
| SPGASSAGQEGEDTLRRRLLAPEA [H4A] | 4.22 |
| SPGTSSAGQEGEDTLRRRLLAPEA [H4T] | 4.14 |
| SPGESSAGQEGEDTLRRRLLAPEA [H4E] | 4.15 |
| SPGFSSAGQEGEDTLRRRLLAPEA [H4F] | 4.3 |
| SPGRSSAGQEGEDTLRRRLLAPEA [H4R] | 3.76 |
| SPGNSSAGQEGEDTLRRRLLAPEA [H4N] | 4.13 |
| SPGCSSAGQEGEDTLRRRLLAPEA [H4C] | 3.71 |
| SPGYSSAGQEGEDTLRRRLLAPEA [H4Y] | 3.84 |
| SPGKSSAGQEGEDTLRRRLLAPEA [H4K] | 3.52 |
| SPGGSSAGQEGEDTLRRRLLAPEA [H4G] | 4.08 |
| SPGQSSAGQEGEDTLRRRLLAPEA [H4Q] | 3.82 |
| SEGHSSAGQEGEDTLRRRLLAPEA [P2E] | 4.43 |
| SSGHSSAGQEGEDTLRRRLLAPEA [P2S] | 3.93 |
| SKGHSSAGQEGEDTLRRRLLAPEA [P2K] | 4.44 |
| SFGHSSAGQEGEDTLRRRLLAPEA [P2F] | 2.53 |
| SYGHSSAGQEGEDTLRRRLLAPEA [P2Y] | 2.24 |
| SCGHSSAGQEGEDTLRRRLLAPEA [P2C] | 2.03 |
| SNGHSSAGQEGEDTLRRRLLAPEA [P2N] | 4.42 |
| SIGHSSAGQEGEDTLRRRLLAPEA [P2I] | 2.5 |
